US20250161419A1, “SERPIN PEPTIDES AND METHODS OF USING THE SAME” (SERPIN PHARMA, LLC, priority 2022, published 2025)

Columns and labels:
[1] = system: phospho-ERK1/2; experiment: Cell signaling analysis in PC12 cells, immunoblot of phospho-ERK1/2; type: cell-based, rat; conditions: 48 h after transfection
Procedure: Cell signaling analysis: Rat PC12 cells were purchased from ATCC (CRL-1721). PC12 cells were maintained in high glucose DMEM (Gibco, USA) containing 10% heat-inactivated FBS (Gibco, USA), 5% HyClone heat-inactivated horse serum (Cytiva, USA), penicillin (100 units/ml) and streptomycin ([…]) in 6-well plates that were pre-coated with 0.01 mg/ml type IV collagen (Sigma-Aldrich, St. Louis, MO, USA). Cells were transferred to serum-free medium (SFM) 4 h prior to adding effectors, and then treated with SP163M (2.4, 24 or 240 nM); EI-tPA (12 nM), NGF (0.36 nM), or vehicle (PBS) for 10 min. In some cases, cells were pre-incubated with the competitive antagonist of LRP1, GST-RAP (150 nM) for 15 min or electroporated using the Rat Neuron Nucleofector Amaxa Kit (Lonza Biosciences) and incubated with siRNA to silence LRP1 expression (siLRP1; M-094191-01-0010, Dharmacon) for 48 h. Control cells were transfected with non-targeting control (NTC) siRNA (NTC; D-001810-10-05, Dharmacon). […] Equal amounts of protein from cell lysates (20 μg), as determined by BCA Protein Assay (ThermoFisher Scientific, Waltham, MA, USA), were subjected to 10% SDS-PAGE and electro-transferred to nitrocellulose membranes. […]

[2] = system: capsaicin induced acute pain-related behavior in mice; experiment: Intraplantar capsaicin model of acute nociception; type: in vivo, mouse; conditions: male mice; SP163M 2 μg/g s.c. or EI-tPA 2 μg/g i.v. 1 h before capsaicin
Procedure: For the capsaicin studies, male (n=41) and female (n=37) mice were acclimated to the behavior testing facility for at least 1 h. Capsaicin was dissolved in 20% (2-hydroxypropyl)-β-cyclodextrin (Sigma-Aldrich, St. Louis, MO, USA) solution. […] Subsequently, 10 μl of 2 μg/μl capsaicin solution was injected into the plantar area of left hind paw. Immediately after capsaicin injection, mice were placed in a plexiglass box. Two observers, blinded to treatments, recorded the time spent licking and flinching the left hind paw over 10 min.

B1: EI-tPA: Recombinant human enzymatically inactive tissue-type plasminogen activator, known LRP1 agonist (protein)
chain: SYQVICRDEKTQMIYQQHQSWLRPVLRSNRVEYCWCNSGRAQCHSVPVKSCSEPRCFNGGTCQQALYFSDFVCQCPEGFAGKCCEIDTRATCYEDQGISYRGTWSTAESGAECTNWNSSALAQKPYSGRRPDAIRLGLGNHNYCRNPDRDSKPWCYVFKAGKYSSEFCSTPACSEGNSDCYFGNGSAYRGTHSLTESGASCLPWNSMILIGKVYTAQNPSAQALGLGKHNYCRNPDGDAKPWCHVLKNRRLTWEYCDVPSCSTCGLRQYSQPQFRIKGGLFADIASHPWQAAIFAKHRRSPGERFLCGGILISSCWILSAAHCFQERFPPHHLTVILGRTYRVVPGEEEQKFEVEKYIVHKEFDDDTYDNDIALLQLKSDSSRCAQESSVVRTVCLPPADLQLPDWTECELSGYGKHEALSPFYSERLKEAHVRLYPSSRCTSQHLLNRTVTDNMLCAGDTRSGGPQANLHDACQGDSGGPLVCLNDGRMTLVGIISWGLGCGQKDVPGVYTKVTNYLDWIRDNMRP
B1 was tested, and the “activation of ERK1/2 in cells transfected with LRP1-specific siRNA” value [1] was “ERK1/2 was not activated”, the “activation of ERK1/2 in cells transfected with NTC siRNA” value [1] was “robustly activated ERK1/2” and the “capsaicin induced acute pain-related behavior (time spent licking over 10 min)” value [2] was “blocked the capsaicin induced acute pain-related behavior”.
